Literature values as cited in publication PMC2678197.

How the values were obtained:
[1] = biological target: CCR5 N-terminal peptide (bis-sulfated) N-terminal region (Homo sapiens) (UniProt P51681); assay: NMR
[2] = biological target: CCR5 N-terminal peptide (unsulfated) N-terminal region (Homo sapiens) (UniProt P51681); assay: NMR
[3] = biological target: CCR3 N-terminal peptide (truncated, non-sulfated) 8-23 (Homo sapiens) (UniProt P51677)
[4] = biological target: CCR3 N-terminal peptide (35 residues, non-sulfated) 1-35 (Homo sapiens) (UniProt P51677)
Sequence of CCR3 N-terminal peptide (35 residues, non-sulfated) 1-35 (Homo sapiens) (P51677 1-35): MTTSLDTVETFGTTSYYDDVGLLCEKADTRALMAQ

Sequence of RANTES (P13501 27-91): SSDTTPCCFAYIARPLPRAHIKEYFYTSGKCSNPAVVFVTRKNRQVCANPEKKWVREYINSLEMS
Sequence of CCR5 N-terminal peptide (bis-sulfated) N-terminal region (Homo sapiens) (P51681 1-27): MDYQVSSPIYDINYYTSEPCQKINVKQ

Kd [1] [µM] | Kd [2] [µM] | Kd [3] [µM] | Kd [4] [µM] | Substance
< 20 | 168 |  |  | RANTES (from UniProt P13501)
 |  | 136 | 80 | eotaxin (from UniProt P51671)
